Experimental data: publication PMC6108177 (Nature structural & molecular biology, 2017)

B1: Human TRF1 TRFH domain (residues 65–267) (domain or fragment, UniProt P54274 65-267, looked up)
chain: GLVAEAEAVAAGWMLDFLCLSLCRAFRDGRSEDFRRTRNSAEAIIHGLSSLTACQLRTIYICQFLTRIAAGKTLDAQFENDERITPLESALMIWGSIEKEHDKLHEEIQNLIKIQAIAVCMENGNFKEAEEVFERIFGDPNSHMPFKSKLLMIISQKDTFHSFFQHFSYNHMMEKIKSYVNYVLSEKSSTFLMKAAAKVVESK

Tests used:
[1] = biological target: Human TRF1 TRFH domain (residues 65–267) (human) (UniProt P54274); assay: ITC
crystal structure = biological target: the molecule itself; assay: crystal structure

Row | Molecule | Kd [1] [µM] | stoichiometry N (crystal structure)
1 | Human TERB1 TBM (TRF1-binding motif, residues 642–656) (from UniProt Q8NA31-1 642-656) (peptide) | 5.6 | –
2 | B1 | – | 2
